Values belong to the binder of their own block, whether it stands above or below them.
What was measured:
[1] = biological target: T1, rHuman P-Cadherin/Fc Chimera, CF (R&D Systems Cat#861-PC) (human, UniProt P22223 108-654); test: MSD Multispot ECL, antigen spotted on plate, Fab in solution; blank spot of the row 240
T1 construct: Bought recombinant Fc chimera; Fc part of the bought chimera not given

[2] = biological target: T2, Recombinant Human DLL4 (R&D Systems Cat#1506-D4/CF) (human, UniProt Q9NR61 27-524); test: as above
T2 construct: Bought recombinant protein; also called delta-like protein 4; Delta-like 4

[3] = biological target: T3, rHuman Notch-1/Fc Chimera, CF (R&D Systems Cat#3647-TK) (human, UniProt P46531 19-526); test: as above
T3 construct: Bought recombinant Fc chimera; Fc part of the bought chimera not given

[4] = biological target: T4, rHuman HGF R/c-MET/Fc Chimera, CF (R&D Systems Cat#358-MT/CF) (human, UniProt P08581 25-932); test: as above
T4 construct: Bought recombinant Fc chimera; also called HGF R/Fc; hepatocyte growth factor receptor; Fc part of the bought chimera not given

[5] = biological target: T5, rHuman Erythropoietin R/Fc Chimera, CF (R&D Systems Cat#963-ER) (human, UniProt P19235 25-250); test: as above
T5 construct: Bought recombinant Fc chimera; also called EPO R; EPO R/Fc; Fc part of the bought chimera not given
T5 sequence (looked up): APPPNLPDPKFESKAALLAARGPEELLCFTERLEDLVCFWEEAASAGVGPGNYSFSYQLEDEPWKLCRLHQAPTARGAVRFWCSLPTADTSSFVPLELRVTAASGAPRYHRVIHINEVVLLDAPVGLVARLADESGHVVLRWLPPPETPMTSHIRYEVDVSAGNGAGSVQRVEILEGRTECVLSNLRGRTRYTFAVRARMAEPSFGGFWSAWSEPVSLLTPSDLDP

[6] = biological target: T6, rHuman EGF R/Fc Chimera, CF (R&D Systems Cat#344-ER) (human, UniProt P00533 25-645); test: as above
T6 construct: Bought recombinant Fc chimera; also called epidermal growth factor receptor; Fc part of the bought chimera not given

[7] = biological target: T1, rHuman P-Cadherin/Fc Chimera, CF (R&D …); test: MSD Multispot ECL, antigen spotted on plate, Fab in solution; blank spot of the row 424
[8] = biological target: T2, Recombinant Human DLL4 (R&D Systems …); test: as above
[9] = biological target: T3, rHuman Notch-1/Fc Chimera, CF (R&D …); test: as above
[10] = biological target: T4, rHuman HGF R/c-MET/Fc Chimera, CF (R&D …); test: as above
[11] = biological target: T5, rHuman Erythropoietin R/Fc Chimera, CF …; test: as above
[12] = biological target: T6, rHuman EGF R/Fc Chimera, CF (R&D …); test: as above
[13] = biological target: T7, Recombinant Human DLL4 (R&D Systems Cat#1506-D4/CF) (human, UniProt Q9NR61 27-524); test: ECL (MSD) multispot binding assay, antigen spotted on the plate, Fab in solution; blank spot of this well 213
T7 construct: Bought recombinant protein; also called rHuman DLL4; delta-like protein 4

[14] = biological target: T8, rHuman P-Cadherin/Fc Chimera, CF (R&D Systems Cat#861-PC) (human, UniProt P22223 108-654); test: as above
T8 construct: Bought reagent; Fc part of the bought chimera not given

[15] = biological target: T9, rHuman Erythropoietin R/Fc Chimera, CF (R&D Systems Cat#963-ER) (human, UniProt P19235 25-250); test: as above
T9 construct: Bought reagent; also called EPO R/Fc; EPO R; Fc part of the bought chimera not given
T9 sequence (looked up): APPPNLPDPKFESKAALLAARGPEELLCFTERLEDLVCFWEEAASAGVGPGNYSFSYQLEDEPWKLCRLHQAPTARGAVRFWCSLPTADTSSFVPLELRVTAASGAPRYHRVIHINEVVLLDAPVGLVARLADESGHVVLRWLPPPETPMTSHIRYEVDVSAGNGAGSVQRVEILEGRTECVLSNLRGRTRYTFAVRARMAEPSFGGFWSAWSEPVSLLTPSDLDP

[16] = biological target: T10, Recombinant Human DLL4 (delta-like protein 4) (human, UniProt Q9NR61 27-524); test: ECL (MSD) multispot binding assay; value equals DLL4 signal over blank of Table 91
T10 construct: Bought recombinant protein (R&D Systems Cat#1506-D4/CF); also called rHuman DLL4

[17] = biological target: T11, rHuman P-Cadherin/Fc Chimera (human, UniProt P22223 108-654); test: ECL (MSD) multispot assay, antigen spotted; blank spot of this row 284
T11 construct: R&D Systems Cat#861-PC; not shown: Fc of the bought R&D Systems chimera

[18] = biological target: T12, rHuman ErbB2/Fc Chimera (human, UniProt P04626 23-652); test: as above
T12 construct: not shown: Fc of the bought R&D Systems chimera

[19] = biological target: T13, rHuman EGF R/Fc Chimera (human, UniProt P00533 25-645); test: as above
T13 construct: not shown: Fc of the bought R&D Systems chimera

[20] = biological target: T14, rHuman CD44/Fc Chimera (human, UniProt P16070 21-220); test: as above
T14 construct: not shown: Fc of the bought R&D Systems chimera

[21] = biological target: T10, Recombinant Human DLL4 (delta-like …); test: as above
[22] = biological target: T15, rHuman Notch-1/Fc Chimera (human, UniProt P46531 19-526); test: as above
T15 construct: R&D Systems Cat#3647-TK; not shown: Fc of the bought R&D Systems chimera

[23] = biological target: T10, Recombinant Human DLL4 (delta-like …); test: ELISA, DLL4 coated on plate
[24] = biological target: T11, rHuman P-Cadherin/Fc Chimera; test: ECL (MSD) multispot assay, antigen spotted; blank spot of this row 223
[25] = biological target: T13, rHuman EGF R/Fc Chimera; test: as above
[26] = biological target: T15, rHuman Notch-1/Fc Chimera; test: as above
[27] = biological target: T11, rHuman P-Cadherin/Fc Chimera; test: ECL (MSD) multispot assay, antigen spotted; blank spot of this row 236
[28] = biological target: T13, rHuman EGF R/Fc Chimera; test: as above
[29] = biological target: T10, Recombinant Human DLL4 (delta-like …); test: as above

T4 sequence (P08581 25-932, change not shown): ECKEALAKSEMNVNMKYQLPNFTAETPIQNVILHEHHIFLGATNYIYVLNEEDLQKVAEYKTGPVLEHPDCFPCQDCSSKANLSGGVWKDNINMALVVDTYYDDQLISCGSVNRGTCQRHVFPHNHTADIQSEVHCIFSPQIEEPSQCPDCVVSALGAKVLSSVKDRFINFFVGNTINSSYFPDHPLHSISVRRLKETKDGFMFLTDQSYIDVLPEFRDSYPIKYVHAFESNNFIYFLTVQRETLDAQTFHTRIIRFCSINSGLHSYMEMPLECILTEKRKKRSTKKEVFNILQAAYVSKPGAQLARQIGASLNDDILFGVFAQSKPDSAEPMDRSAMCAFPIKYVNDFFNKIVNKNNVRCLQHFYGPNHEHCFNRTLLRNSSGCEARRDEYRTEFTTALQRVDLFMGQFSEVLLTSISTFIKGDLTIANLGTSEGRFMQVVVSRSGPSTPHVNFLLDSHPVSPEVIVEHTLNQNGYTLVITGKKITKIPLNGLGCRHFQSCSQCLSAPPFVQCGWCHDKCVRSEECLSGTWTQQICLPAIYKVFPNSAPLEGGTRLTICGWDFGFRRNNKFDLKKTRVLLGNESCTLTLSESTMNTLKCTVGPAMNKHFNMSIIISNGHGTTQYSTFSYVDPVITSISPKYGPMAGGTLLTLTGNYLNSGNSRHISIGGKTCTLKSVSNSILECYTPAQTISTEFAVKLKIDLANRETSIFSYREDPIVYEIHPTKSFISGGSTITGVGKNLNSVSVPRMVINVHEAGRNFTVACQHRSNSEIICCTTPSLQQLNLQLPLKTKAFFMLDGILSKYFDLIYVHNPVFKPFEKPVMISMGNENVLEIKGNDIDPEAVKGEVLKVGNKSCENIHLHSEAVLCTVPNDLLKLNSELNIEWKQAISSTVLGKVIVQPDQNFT

B1: Fab VH5-51_IGHD5-18*01>3_IGHJ4*01 G100K/G104T (KT) & V3-4_IGLJ1*01 (Fab, V domains shown)
VH: EVQLVQSGAEVKKPGESLKISCKGSGYSFTSYWIGWVRQMPGKGLEWMGIIYPGDSDTRYSPSFQGQVTISADKSISTAYLQWSSLKASDTAMYYCARRKYSYTYDYFDYWGQGTLVTVSS
VL: QTVVTQEPSFSVSPGGTVTLTCGLSSGSVSTSYYPSWYQQTPGQAPRTLIYSTNTRSSGVPDRFSGSILGNKAALTITGAQADDESDYYCVLYMGSGISYVFGTGTKVTVL
notes: Fab made in E. coli; VH cloned into Plasmid A (CH1, His6 and Flag tags), lambda VL into Plasmid E (lambda CL); also called H:KT & L:wt; KT double mutant
ECL signal [1]: 346 | ECL signal [2]: 45100 | ECL signal [3]: 507 | ECL signal [4]: 936 | ECL signal [5]: 497 | ECL signal [6]: 915 | ECL signal [7]: 319 | ECL signal [8]: 36400 | ECL signal [9]: 543 | ECL signal [10]: 838 | ECL signal [11]: 554 | ECL signal [12]: 852

B2: Fab VH5-51_IGHD5-18*01>3_IGHJ4*01 G100K/G104T (KT) & V3-4_IGLJ1*01 (Fab, V domains shown)
VH: EVQLVQSGAEVKKPGESLKISCKGSGYSFTSYWIGWVRQMPGKGLEWMGIIYPGDSDTRYSPSFQGQVTISADKSISTAYLQWSSLKASDTAMYYCARRKYSYTYDYFDYWGQGTLVTVSS
VL: QTVVTQEPSFSVSPGGTVTLTCGLSSGSVSTSYYPSWYQQTPGQAPRTLIYSTNTRSSGVPDRFSGSILGNKAALTITGAQADDESDYYCVLYMGSGISYVFGTGTKVTVL
notes: Tested as a Fab expressed in E. coli; The heavy chain variable region was cloned into Plasmid A (CH1 constant region, His6 and Flag tags); The lambda light chain variable region was cloned into Plasmid E (lambda CL); also called H:KT & L:wt; KT double mutant
ECL signal [13]: 32700 | ECL signal [14]: 226 | ECL signal [15]: 421

B4: Fab VH5-51_IGHD5-18*01>3_IGHJ4*01 G100K/G104T S84L & V3-4_IGLJ1*01 (Fab, V domains shown)
VH: EVQLVQSGAEVKKPGESLKISCKGSGYSFTSYWIGWVRQMPGKGLEWMGIIYPGDSDTRYSPSFQGQVTISADKSISTAYLQWLSLKASDTAMYYCARRKYSYTYDYFDYWGQGTLVTVSS
VL: QTVVTQEPSFSVSPGGTVTLTCGLSSGSVSTSYYPSWYQQTPGQAPRTLIYSTNTRSSGVPDRFSGSILGNKAALTITGAQADDESDYYCVLYMGSGISYVFGTGTKVTVL
notes: Fab made in E. coli (heavy chain vector with CH1, His6 and Flag tags; lambda CL vector)
ECL signal [24]: 320 | ECL signal [25]: 864 | ECL signal [26]: 410

Other lines, results leading:

ECL signal-to-blank ratio [16]: 76.8 | ECL signal [17]: 406 | ECL signal [18]: 1100 | ECL signal [19]: 791 | ECL signal [20]: 538 | ECL signal [21]: 21800 | ECL signal [22]: 443 | ELISA (Signal-Noise) [23]: 0
B3: Fab VH5-51_IGHD5-18*01>3_IGHJ4*01 G100K/G104T D109A & V3-4_IGLJ1*01 (Fab, V domains shown)
VH: EVQLVQSGAEVKKPGESLKISCKGSGYSFTSYWIGWVRQMPGKGLEWMGIIYPGDSDTRYSPSFQGQVTISADKSISTAYLQWSSLKASDTAMYYCARRKYSYTYDYFAYWGQGTLVTVSS
VL: QTVVTQEPSFSVSPGGTVTLTCGLSSGSVSTSYYPSWYQQTPGQAPRTLIYSTNTRSSGVPDRFSGSILGNKAALTITGAQADDESDYYCVLYMGSGISYVFGTGTKVTVL
notes: as for B4

ECL signal-to-blank ratio [16]: 37.7 | ELISA (Signal-Noise) [23]: 0.02 | ECL signal [27]: 362 | ECL signal [28]: 805 | ECL signal [29]: 8890
B5: Fab VH5-51_IGHD5-18*01>3_IGHJ4*01 G100K/G104T S84V & V3-4_IGLJ1*01 (Fab, V domains shown)
VH: EVQLVQSGAEVKKPGESLKISCKGSGYSFTSYWIGWVRQMPGKGLEWMGIIYPGDSDTRYSPSFQGQVTISADKSISTAYLQWVSLKASDTAMYYCARRKYSYTYDYFDYWGQGTLVTVSS
VL: QTVVTQEPSFSVSPGGTVTLTCGLSSGSVSTSYYPSWYQQTPGQAPRTLIYSTNTRSSGVPDRFSGSILGNKAALTITGAQADDESDYYCVLYMGSGISYVFGTGTKVTVL
notes: as for B4

— patent US20120316071A1 (published 2012)
